Substitutions are numbered along the chain they refer to.

The target of assay [1] is T1, His-tag-fused human CD3D&E protein (Sino Biological, Inc.) (human, UniProt P07766 23-126; P04234 22-105).
T1 construct: also called soluble CD3; human CD3 protein
The assay is described as follows: SPR (Biacore), His-tagged human CD3D&E captured on anti-tetra His antibody, antibody as analyte, single cycle kinetics.
Experimental: The binding affinity of these antibodies for CD3 was measured by Biacore (GE Healthcare). Specifically, an anti-tetra His mouse antibody (QIAGEN NV.) was immobilized on a CM5 sensor chip at approximately 8000 RU using an amine coupling kit (GE Healthcare). As the coupling buffer, 10 mM sodium acetate (pH 4.5) was used. As the ligand, a His-tag-fused human CD3D&E protein (Sino Biological, Inc.) dissolved in HBS-EP(+) buffer at 5 μg/mL was captured at 5 μL/min for 120 seconds.
Subsequently, bispecific antibody solutions obtained by 2-fold serial dilution for 5 times from 10 μg/mL was added as the analyte at a flow rate of 30 μL/min, and binding reaction between each antibody and the analyte was measured for 2 minutes, and a dissociation reaction was measured for 5 minutes. The measurement was performed by single cycle kinetics method. The obtained sensorgram was analyzed using Bia Evaluation Software (GE Healthcare), and the kinetic constant of each antibody was calculated.

For assay [2], the target named is cynomolgus monkey CD3 on HSC-F cells (cynomolgus monkey, UniProt Q95LI5 22-198). The assay is described as follows: flow cytometry, hybridoma supernatant on HSC-F cells, Alexa 647 anti-human IgG.
cynomolgus monkey CD3 on HSC-F cells, sequence (Q95LI5 22-198): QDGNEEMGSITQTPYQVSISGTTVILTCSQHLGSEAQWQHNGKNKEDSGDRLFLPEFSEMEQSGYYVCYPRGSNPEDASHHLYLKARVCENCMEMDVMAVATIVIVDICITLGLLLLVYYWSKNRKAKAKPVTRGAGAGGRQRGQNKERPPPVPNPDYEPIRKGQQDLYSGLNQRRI
Experimental: The screening of anti-CD3 antibody-producing hybridomas was performed by flow cytometry. Cells cultured in a flask for floating cell culture were collected, washed twice with PBS, and then suspended in a staining buffer (PBS containing 0.02% EDTA, 0.05% NaN₃, and 1% BSA), and prepared so that the viable cell count was 2.0 to 5.0×10⁵ cells/50 μL. […] As negative control cells, unstained KHYG-1 cells (JCRB cell bank JCRB156) were used.
These three types of cells were mixed in equal amounts, and the resultant was dispensed into a 96-well plate at 50 μL/well, and incubated on ice for 30 minutes, and then, an equal amount of the undiluted hybridoma supernatant solution was added thereto and mixed therewith, and placed at 4° C. for 30 minutes. […] After performing centrifugation of the cells and washing with a staining buffer twice, the cells were suspended in a staining buffer, and the fluorescent intensity was measured with a flow cytometer CyAn ADP (Beckman Coulter, Inc.).
A further assay addresses T2, CD3 on T cells (UniProt P07766 23-207, limits assumed).
T2 construct: whole, on cells; also called CD3 on the surface of the membrane
In words: flow cytometry on T cells by the method of Example 3, fluorescently labeled secondary antibody.

A further assay has as its target T3, HER2 (human, UniProt P04626 23-1255).
T3 construct: whole, on cells; also called HER2 on the surface of the cell membrane
In words: flow cytometry competition by the method of Example 3 (SK-BR-3 cells): inhibition of the binding of fluorescently labeled Trastuzumab.

T1 sequence (P07766 23-126, chain 1 of 2): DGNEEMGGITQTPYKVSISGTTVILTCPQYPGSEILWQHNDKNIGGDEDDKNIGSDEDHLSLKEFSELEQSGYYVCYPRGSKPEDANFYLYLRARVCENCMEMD
T1 sequence (P04234 22-105, chain 2 of 2): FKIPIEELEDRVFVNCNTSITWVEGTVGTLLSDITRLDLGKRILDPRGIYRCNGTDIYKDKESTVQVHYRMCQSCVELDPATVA
T2 sequence (P07766 23-207 limits assumed): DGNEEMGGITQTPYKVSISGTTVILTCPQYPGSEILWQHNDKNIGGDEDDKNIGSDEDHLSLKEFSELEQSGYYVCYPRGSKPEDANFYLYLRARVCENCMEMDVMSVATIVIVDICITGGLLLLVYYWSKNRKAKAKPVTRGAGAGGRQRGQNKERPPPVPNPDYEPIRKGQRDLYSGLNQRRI
Experimental for CD3 on T cells: Each of the various antibodies was added to T cells at a final concentration of 10 g/mL and allowed to react at 4° C. for 1 hour. After washing, Goat anti-Human IgG F(ab)₂-FITC (Acris Antibodies GmbH) diluted to 30 μg/mL was added thereto and allowed to react at 4° C. for 1 hour.
As a positive control, 30 μg/mL of an anti-CD3 antibody OKT-3 (abcam. plc) was used as the primary antibody, and Goat anti-mouse IgG F(ab)₂-FITC (Dako, Inc.) was used as the secondary antibody. After washing, the MFI of the antibody bound to T cells was measured with a flow cytometer Cytomics FC 500 MPL (Beckman Coulter, Inc.).
Experimental for HER2: Subsequently, binding inhibition analysis by flow cytometry was performed using an HER2-positive human breast cancer cell line SK-BR-3 (ATCC HTB-30).
As a negative control, human serum-derived IgG1/kappa (Millipore, Inc.) at the same concentration was added. After washing, mean fluorescent intensity (MFI) of the binding of SK-BR-3 cells was measured with a flow cytometer Cytomics FC 500 MPL (Beckman Coulter, Inc.).

B1: 4D5mut_scSP34_IgG1 (DF) (bispecific antibody)
chain 1: EVQLVESGGGLVQPKGSLKLSCAASGFTFNTYAMNWVRQAPGKGLEWVARIRSKYNNYATYYADSVKDRFTISRDDSQSILYLQMNNLKTEDTAMYYCVRHGNFGNSYVSWFAYWGQGTLVTVSSGGGGSGGGGSGGGGSQAVVTQESALTTSPGETVTLTCRSSTGAVTTSNYANWVQEKPDHLFTGLIGGTNKRAPGVPARFSGSLIGDKAALTITGAQTEDEAIYFCALWYSNLWVFGGGTKLTVLGTKYGPPCPPCPAPEFEGGPSVFLFPPKPKDTLMISRTPEVTCVVVDVSQEDPEVQFNWYVDGVEVHNAKTKPREEQFNSTYRVVSVLTVLHQDWLNGKEYKCKVSNKGLPSSIEKTISKAKGQPREPQVCTLPPSQEEMTKNQVSLSCAVKGFYPSDIAVEWESNGQPENNYKTTPPVLDSDGSFFLVSKLTVDKSRWQEGNVFSCSVMHEALHNRFTQKSLSLSLGK
chain 2: not shown
chain 3: not shown
On to B1, for which the Kd in assay [1] came out at 12.6 nM.

B2: 4D5mut_scSP34(H05′)_IgG1 (DF) (bispecific antibody)
chain 1: B1 chain 1 with Y108D, S235E
chain 2: not shown
chain 3: not shown
Consider B2, for which binding in assay [1] was characterised by a dissociation constant (Kd) of 108 nM.

B3: anti-CD3 monoclonal antibody KM14 (antibody, V domains shown)
VH: QVQLVESGGGVVQPGRSLRLSCEASGFTFSSHGMHWVRQAPGKGLEWVASIWYDGSKKYYADSVKGRFTISRDNSKNTLDLQMNSLRAEDTAVYYCAKTLYYYGSERAHGLDVWGQGTTVTVSS
VL: AIQLTQSPSSLSASVGDRVTITCRASQGISSALAWYQQKPGKAPNLLIYDASSLESGVPSRFSGSGSGTDFTLTISSLQPEDFATYYCQQFNSYPRTFGQGTKVEIK
notes: also called hybridoma clone KM14
As to B3, the binding result in assay [2] is reported as “binds”.

B4: DNP2_IgG1 (DF) (antibody, V domains shown)
VH: QVQLVQSGAEVKKPGASVKVSCKASGYTFTSYGISWVRQAPGQGLEWMGWISAYNGNTNYAQKLQGRVTMTTDTSTSTAYMELRSLRSDDTAVYYCARWDSSSWSFDYWGQGTLVTVSS
VL: DIQMTQSPSSLSASVGDRVTITCRASQGISSWLAWYQQKPEKAPKSLIYAASSLQSGVPSRFSGSGSGTDFTLTISSLQPEDFATYYCQQYNSYPYTFGQGTKLEIKR
notes: also called IgG1-type anti-2,4-dinitrophenyl (DNP) antibody, clone DNP2
As to B4, the values for the binding result with CD3 on T cells and with HER2 were “no binding (tested: 10 nM)” and “no binding”, respectively.

The record behind these values is patent US20230406926A1 (Kyowa Kirin, published 2023).
